Data taken from PMC4033772 (The Journal of Cell Biology, 2014).

Molecular target: the molecule itself
Assay: SEC + other: sucrose gradient sedimentation

B1: FLAG-tagged Stu1 (natural protein, S. cerevisiae, UniProt P38198 1-1513, looked up)
chain: MSSFNNETNNNSNTNTHPDDSFPLYTVFKDESVPIEEKMALLTRFKGHVKKELVNESSIQAYFAALLFISGHYAYRSYPRLIFLSHSSLCYLIKRVAMQSPVQFNDTLVEQLLNHLIFELPNEKKFWLASIKAIEAIYLVNPSKIQAILANFLRRPSENQNGDYLNRIKSTLLTIDELIQINEKNNSNHLQLLRFFMLSFTNLLNNNLNEHANDDNNNVIIELIFDIMYKYLKMDDENSQDLIDGFINDLEVEKFKQKFISLAKSQDQHGSQEDKSTLFDEEYEFQLLLAEAKLPQLSNNLSSKDPAMKKNYESLNQLQQDLENLLAPFQSVKETEQNWKLRQSNIIELDNIISGNIPKDNPEEFVTVIKEVQLIELISRATSSLRTTLSLTALLFLKRLIHILNDQLPLSILDQIFVIFKNLLSSTKKISSQTAFHCLITLIIDINHFHNKLFQLSFLLINEKTVTPRFCSAILLRSFLIKFNDSNLSLNNSNTTSPTSKLENNIIYIEEWLKKGISDSQTTVREAMRLTFWYFYKCYPTNAKRLLSSSFSPQLKKATELAIPAHLNINYQVSRVSSTASASSATSRLYSHSSNNSSRKTSLLEQKRNYPSYAQPTQSSSTSLLNAPAVTAGGSVIASKLSNKLKTNLRSTSEYSSKENEKRARHHDSMNSVSNSNTKDNNNVTKRKVSAPPSSTAATKVSENYTNFDDFPSNQIDLTDELSNSYSNPLIKKYMDKNDVSMSSSPISLKGSNKLGEYETLYKKFNDASFPAQIKDALQYLQKELLLTSQQSSSAPKFEFPMIMKKLRQIMIKSPNDFKPFLSIEKFTNGVPLNYLIELYSINSFDYAEILKNRMNPEKPYELTNLIITIADLFNFLNANNCPNDFKLYYMKYKTTFFNYNFKLLLEIFRNLNIKHDNTLRSGTNDLMPKISMILFQIYGKEFDYTCYFNLIFEIYKFDNNRFNKLLADFDIVSTKMKICHELEKKDANFKVEDIISRESSVSFTPIDNKKSEGDEESDDAVDENDVKKCMEMTMINPFKNLETDKTLELKNNVGKRTSSTDSVVIHDDNDKDKKLSEMTKIVSVYQLDQPNPAKEEDDIDMENSQKSDLNLSEIFQNSGENTERKLKDDNEPTVKFSTDPPKIINEPEKLIGNGNENEKPDLETMSPIKINGDENMGQKQRITVKRERDVALTEQDINSKKMKLVNNKKSEKMHLLIMDNFPRDSLTVYEISHLLMVDSNGNTLMDFDVYFNHMSKAINRIKSGSFTMKHINYLIEPLITCFQNQKMTDWLTNENGFDELLDVAIMLLKSTDDTPSIPSKISSKSIILVHCLLVWKKFLNTLSENADDDGVSVRMCFEEVWEQILLMLNKFSDYGNEIYKLAQEFRDSLMLSHFFKKHSATRILSMLVTEIQPDTAGVKETFLIETLWKMLQSPTICQQFKKSNISEIIQTMSYFIMGTDNTSWNFTSAVVLARCLRVLQTTPDYTEQETERLFDCLPKNVFKMIMFIASNE
With B1 the “stoichiometry N” value was 2.
